Measurements as given in the RNAGym collection of RNA variant scans (doi:10.1073/pnas.2313332121).

B1: TPR t1 (parent)
chain: GACCAAUCUGCCCUCAGAGCUCGAGAACAUCUUCGGAUGCAGAGGAGGCAGGCUUCGGUGGCGCGAUAGCGCCAACGUCCUCAACCUCCAAUGCAUCCCACCACAUGAUGAUGCCUGAAGAGCCUUGGUUUUUUG

Variants of: B1
Experiment: polymerase ribozyme fitness, log enrichment relative to wild type (log ratio); higher = more active; in vitro selection for triplet polymerase activity
How it was run: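 Fitness compares each genotype's enrichment to that of the wild type on a logarithmic scale, averaging replicates with inverse-variance weights. The logarithm is base 2. Enrichment came from Illumina sequencing of input and output libraries after one triplicate round of in vitro selection, which included frozen incubation at −7 °C, of PCR-built, transcribed mutant libraries of each subunit of a heterodimeric triplet polymerase ribozyme. Only genotypes with ≥10 input reads and ≥1 read per output were kept.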

| Variant | polymerase ribozyme fitness (log ratio) |
| --- | --- |
| C8G C104G U116C A121U G122U U129C | -7.72 |
| C8G C73U C86U | 0.186 |
| C8A G48U U59G C73G A105C U112C G120A | -2.35 |
| C8G G17U U59G C115G A118G | 0.49 |
| C8G G35C U131A | -5.09 |
| C8G A43U C53U U106A | -1.57 |
| C8G C11A G51A G71U U106G G113U U125G | -6.93 |
| C8G A27U A29U G69U C101A C114U | -5.18 |
| C8A G60A | -0.104 |
| C8A U9G C94G | -0.653 |
| C8G C12G C73U A83G G113C | -2.3 |
| C8G G17U A26U G120U | -2.91 |
| C8G G42A | -0.64 |
| C8A G63C U78C U81A C101A U109G | -5.76 |
| C8G C49A U96G | 0.183 |
| C8G A111C G113U | -3.45 |
| C8A G61C A119G U126G | -2.44 |
| C8G C80G | -4.19 |
| C8G G52A G63C C94G G113C U131G | -4.64 |
| C8G G19U U125A | -2.65 |
| C8G A43U U54C C72G C114A A118G | -5.83 |

| Variant | polymerase ribozyme fitness (log ratio) |
| --- | --- |
| C8A G135A | -0.0375 |
| C8G | 0.574 |
| C8G A46U C104A U106C U116C | -3.35 |
| C8A G69U C88G G128C | -3.18 |
| C8A U59G C114U | -0.559 |
| C8G C82U C97U G127C | -0.232 |
| C8G G48U C72A | 0.0646 |
| C8G G10C U55G A91C | -1.21 |
| C8G A18U G44U G47A C102A G120A A121C C124U | -6.31 |
| C8G C20G C40G U96C U112A | -6.13 |
| C8G G36A G44A | -1.23 |
| C8A G93C | 0.003 |
| C8G A68G | -2.09 |
| C8G G36U | 0.298 |
| C8G C124A | 2.31 |
| C8G G39U C70U U78A | -0.697 |
| C8G G48A G63C C72U C88A | -4.05 |
| C8G A41G G71A U78G G122U | -1.62 |
| C8G G63A A83G C85A G122A | -1.28 |
| C8G C15G | -1.24 |
| C8G C11U C82A U112A | 0.802 |

| Variant | polymerase ribozyme fitness (log ratio) |
| --- | --- |
| C8G G39A G63U A84U | -1.03 |
| C8G A50G U106G G120A | 1.23 |
| C8G A18U A111G G128A U132C | -2.59 |
| C8A U78C G113C | -0.875 |
| C8G C101A | -0.236 |
| C8G A26U A29G | -3.46 |
| C8G G39U C80A | -2.47 |
| C8G A18C A37C G120C | 0.00671 |
| C8A G61U A83C A100C | -0.341 |
| C8G C12G U59G U129C | 0.2 |
| C8G A118U | 1.5 |
| C8G C11U A16C G44C U59C G60A C115G | -4.64 |
| C8G G17C C53U | -2.9 |
| C8G G35C | -4.29 |
| C8A U38A A46C | -1.09 |
| C8G G61A | 0.403 |
| C8G G61C | -1.09 |
| C8G C22U A43G C88U C97A C99U C101U C102G G110C | -6.9 |
| C8G G65C C114U C123A | -7.69 |
| C8G G52U | 0.359 |
| C8A U21C C62U A83G G117A | -1.21 |

| Variant | polymerase ribozyme fitness (log ratio) |
| --- | --- |
| C8G G71A C89A C97U G120C | -1.24 |
| C8G G58A U96A | 0.339 |
| C8G G47U C123U | 0.786 |
| C8G C13A G52C U92A | -3.15 |
| C8G C11U U116C G120U | 0.747 |
| C8G A90C A91U A95G | -1.14 |
| C8G G63A C73U U78C C123G | 0.795 |
| C8G A43U C88G G110U G120U | -4.09 |
| C8G G44C C49A | 0.0557 |
| C8G G23A G61U U109A U112A | -6.91 |
| C8G C13G C98U | -0.112 |
| C8G G117U | -1.44 |
| C8G G117C | -0.943 |
| C8G C104A | -0.951 |
| C8G C89A C94G | -2.14 |
| C8G C12G G60U G93A | -0.276 |
| C8G C20A C82U A100C U112C | -3.16 |
| C8G C11G A41C C49A | -0.887 |
| C8A G65C C115A C123G | -4.88 |
| C8G G17U | -0.274 |
